Earlier results, collected in publication PMC4549621.

Target: amyloid-beta monomer Abeta (Homo sapiens) (UniProt P05067)

gantenerumab
Kd: 600 pM
